Laboratory results: EP4649952A1 (dated 2025)
Residue numbers refer to the chain shown, from its start.

T1: KRAS Q61H peptide on HLA-A*01:01 (human)
T1 peptide: ILDTAGHEEY

B1: TCR-1 (TCR, V domains shown)
Valpha: KVTQAQTEISVVEKEDVTLDCVYETRDTTYYLFWYKQPPSGELVFLIRRNSFDEQNEISGRYSWNFQKSTSSFNFTITASQVVDSAVYFCALSEANQAGTALIFGKGTTLSVSS
Vbeta: EAQVTQNPRYLITVTGKKLTVTCSQNMNHEYMSWYRQDPGLGLRQIYYSMNVEVTDKGDVPEGYKVSRKEKRNFPLILESPSPNQTSLYFCASSRKVPPVYGYTFGSGTRLTVV
B2: TCR-3 (TCR, V domains shown)
Valpha: AQKVTQAQTEISVVEKEDVTLDCVYETRDTTYYLFWYKQPPSGELVFLIRRNSFDEQNEISGRYSWNFQKSTSSFNFTITASQVVDSAVYFCALSEAKAAGNKLTFGGGTRVLVKP
Vbeta: B1 Vbeta with V97L, V100T
B3: TCR-2 (TCR, V domains shown)
Valpha: B1 Valpha
Vbeta: B1 Vbeta with K96R, V97W, V100T, Y101D, G102T, Y103Q, T104Y, S107P, V114L

Biological target: T1, KRAS Q61H peptide on HLA-A*01:01
Experiment: cytokine release

Binding result, recognises:
B1
B2
B3
